Assay [1] concerns the target ErbB4 497.Fc (truncated ErbB4 ectodomain-Fc fusion protein homodimer) (human) (UniProt Q15303). Nature of the assay: displacement of Eu-HRGβ by unlabelled HRGβ from ErbB4 497.Fc captured on protein G.
Assay [2] addresses ErbB3 500.Fc (truncated ErbB3 ectodomain-Fc fusion protein homodimer) (human) (UniProt P21860). Kind of assay: summary of the Eu-ligand displacement assays (ErbB3 fragment, HRGβ).
For assay [3], the target named is ErbB4 497.Fc (truncated ErbB4 ectodomain-Fc fusion protein homodimer) (human) (UniProt Q15303). Nature of the assay: summary of the Eu-ligand displacement assays (ErbB4 fragment, HRGβ).
Assay [4] concerns the target ErbB2/4 full-length ectodomain-Fc heterodimer (human) (UniProt P04626). Kind of assay: displacement of Eu-BTC by unlabelled HRGβ from ErbB2/4 ectodomain-Fc captured on protein G.
For assay [5], the target named is full-length ErbB4 ectodomain-Fc fusion homodimer (human) (UniProt Q15303). Nature of the assay: displacement of Eu-BTC by unlabelled HRGβ from ErbB4 ectodomain-Fc captured on protein G.
Assay [6] deals with ErbB3 500.Fc (truncated ErbB3 ectodomain-Fc fusion protein homodimer) (human) (UniProt P21860). Kind of assay: displacement of Eu-HRGβ by unlabelled HRGβ from ErbB3 500.Fc captured on protein G.
Chain of ErbB3 500.Fc (truncated ErbB3 ectodomain-Fc fusion protein homodimer) (human) (P21860 20-500, form in doubt): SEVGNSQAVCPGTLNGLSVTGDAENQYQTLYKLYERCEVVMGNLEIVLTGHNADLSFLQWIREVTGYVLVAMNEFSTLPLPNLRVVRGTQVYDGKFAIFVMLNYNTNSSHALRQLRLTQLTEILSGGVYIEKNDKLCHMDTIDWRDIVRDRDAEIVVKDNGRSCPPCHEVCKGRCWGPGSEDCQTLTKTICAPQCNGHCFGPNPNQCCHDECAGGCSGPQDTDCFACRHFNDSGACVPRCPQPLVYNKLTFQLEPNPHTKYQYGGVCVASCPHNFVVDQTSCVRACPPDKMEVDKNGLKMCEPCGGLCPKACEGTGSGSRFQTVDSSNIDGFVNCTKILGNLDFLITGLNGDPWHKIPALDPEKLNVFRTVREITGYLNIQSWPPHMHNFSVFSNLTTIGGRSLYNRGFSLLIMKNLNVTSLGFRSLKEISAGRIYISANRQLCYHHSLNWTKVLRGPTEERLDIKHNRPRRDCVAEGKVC

Chain of ErbB4 497.Fc (truncated ErbB4 ectodomain-Fc fusion protein homodimer) (human) (Q15303 26-497, form in doubt): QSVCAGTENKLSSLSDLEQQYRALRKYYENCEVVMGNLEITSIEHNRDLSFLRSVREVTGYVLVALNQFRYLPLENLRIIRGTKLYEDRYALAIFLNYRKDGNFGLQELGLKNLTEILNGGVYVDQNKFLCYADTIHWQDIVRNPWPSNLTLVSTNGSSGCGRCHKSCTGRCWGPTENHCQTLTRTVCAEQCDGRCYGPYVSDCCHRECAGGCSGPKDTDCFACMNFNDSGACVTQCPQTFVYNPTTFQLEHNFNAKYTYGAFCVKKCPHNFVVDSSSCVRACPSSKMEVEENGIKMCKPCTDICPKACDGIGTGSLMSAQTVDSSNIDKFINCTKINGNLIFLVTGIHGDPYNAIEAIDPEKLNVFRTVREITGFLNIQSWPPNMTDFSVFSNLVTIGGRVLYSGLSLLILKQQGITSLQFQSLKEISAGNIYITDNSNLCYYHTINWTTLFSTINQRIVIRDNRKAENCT
Chain of full-length ErbB4 ectodomain-Fc fusion homodimer (human) (Q15303 26-651): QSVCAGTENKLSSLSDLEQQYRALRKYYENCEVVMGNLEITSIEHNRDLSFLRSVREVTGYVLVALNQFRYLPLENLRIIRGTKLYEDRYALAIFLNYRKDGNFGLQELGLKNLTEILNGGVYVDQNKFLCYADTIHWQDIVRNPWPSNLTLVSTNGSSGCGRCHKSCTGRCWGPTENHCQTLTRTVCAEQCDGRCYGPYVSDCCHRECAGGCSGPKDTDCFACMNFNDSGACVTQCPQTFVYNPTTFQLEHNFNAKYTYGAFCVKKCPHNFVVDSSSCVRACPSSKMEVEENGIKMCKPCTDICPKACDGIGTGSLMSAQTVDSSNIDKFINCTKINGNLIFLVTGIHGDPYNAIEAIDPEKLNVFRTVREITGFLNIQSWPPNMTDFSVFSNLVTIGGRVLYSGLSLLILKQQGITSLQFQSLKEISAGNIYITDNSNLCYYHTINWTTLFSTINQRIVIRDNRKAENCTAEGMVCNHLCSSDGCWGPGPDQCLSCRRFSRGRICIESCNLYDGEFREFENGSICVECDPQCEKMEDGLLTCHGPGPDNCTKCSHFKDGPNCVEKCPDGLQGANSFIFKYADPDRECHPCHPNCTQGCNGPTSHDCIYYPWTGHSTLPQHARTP

With β-heregulin (HRGβ, Sigma) (ligand), the IC50 in assay [1] stood at 0.057 nM; in assay [5] it was 18 nM; in assay [6], 0.49 nM. In addition, the affinity in assay [2] and in assay [3] was below 1 nM in each case. The substance also gave a change of the IC50 against the ErbB4 ectodomain-Fc homodimer in assay [4] of 100 fold.

Usually IC50 stands for the concentration needed to halve the response being measured. A high value points to weaker potency in that assay.

The values above are taken from patent publication US20060234343A1.
